In patent US20190010498, “CHEMICALLY MODIFIED AMPA RECEPTOR RNA APTAMERS” (The Research Foundation for the State University of New York, published 2019):

Columns and labels:
[1] = target: T1, GluA2Qflip AMPA receptor (homomeric, Q/R site unedited) (UniProt P19491-2 P19491-2:22-883); test: inhibition; whole-cell current recording, closed-channel (0.1 mM glutamate), -60 mV, 22 C; conditions: tags: transiently expressed in HEK-293S cells; chain copies: 4 inferred
Excerpt: Functional Characterization of FN1040 by Whole-Cell Recording. Using whole-cell current recording, we first tested each of the six putative RNA aptamers against GluA2Qflip, the SELEX target. […] To verify this, we tested the aptamer at increasing concentrations against the GluA2Qflip channel expressed in HEK-293 cells (FIG. 1b). On the closed-channel conformation, we observed a linear relationship between the A/A(I) value and the aptamer concentration (FIG. 1b). Using eq 1 (see Data Analysis of Whole-Cell Current Amplitude), we estimated that the inhibition constant, K, for the closed-channel form of GluA2Qflip was 2.3±0.7 μM (FIG. 1b).
Whole-Cell Current Recording. […] For recording of the NMDA channels, the intracellular solution contained (in mM) 140 CsCl, 1 MgCl₂, 0.1 EGTA, and 10 HEPES (pH 7.2 adjusted by Mg(OH)₂) and the extracellular solution contained 2 μM of glycine and (in mM) 135 NaCl, 5.4 KCl, 1.8 CaCl₂, 10 glucose and 5 HEPES (pH 7.2 adjusted by NaOH).¹⁰ The glutamate-induced whole-cell current was recorded using an Axopatch-200B amplifier at a cutoff frequency of 2-20 kHz by a built-in, eight-pole Bessel filter and digitized at 5-50 kHz sampling frequency using a Digidata 1322A from Axon Instruments (Molecular Devices, Sunnyvale, Calif.). […]

[2] = target: T1, GluA2Qflip AMPA receptor (homomeric, …); test: competition; homologous competition with 32P-FN1040, nylon filter; 150 mM NaCl, 3 mM KCl, 1 mM CaCl2, 1 mM MgCl2, 10 mM HEPES pH 7.4; 10 ng/ul tRNA; NBQX displaces about 50%, glutamate about 30%, BDZ-f/BDZ-g none; conditions: tags: transiently expressed in HEK-293S cells; chain copies: 4 inferred
Excerpt: Binding Affinity of FN1040 on GluA2Qflip. The binding affinity, Kd, of FN1040 for GluA2Qflip was estimated from a homologous competitive binding experiment. In this experiment, intact GluA2Qflip receptors embedded in HEK-293 cell membrane fragments were mixed with ³²P-labeled or hot FN1040 (see RNA 5′-end Labeled with ³²P.). The unlabeled FN1040 (or cold FN1040) was used to compete with the hot FN1040 for the binding to GluA2Qflip receptors. As shown, the normalized radioactivity as a function of the cold FN1040 was determined (FIG. 1c).
Homologous Competitive Binding Assay. FN1040 was transcribed in a transcription reaction mixture with additional 0.4 μM of ³²P-α-ATP (800 Ci/mmol). The ³²P-FN1040 product was separated by 8M urea PAGE and recovered by electroelution method (Elutrap, GE Health). Before mixing with the cell membrane fragments, the RNA was run through a refolding procedure, i.e. 95° C./3′→50° C./30′→room temperature/30′. The binding mixture contained 0.6 nM of GluA2Qflip receptor, 10 ng/μl of yeast tRNA, 10 nM of ³²P-FN1040, and 0 to 1.5 μM of unlabeled FN1040 in the extracelluar buffer. […] The radioactivity remaining on the filter was counted in a scintillation counter (Beckman LS6500). […] Assuming a one-site binding model, we determined the Kd of the aptamer bound to the receptor by fitting the binding data to eq 2⁵² below, […]

T1 sequence (P19491 other isoform, or with tags, fused parts or gaps): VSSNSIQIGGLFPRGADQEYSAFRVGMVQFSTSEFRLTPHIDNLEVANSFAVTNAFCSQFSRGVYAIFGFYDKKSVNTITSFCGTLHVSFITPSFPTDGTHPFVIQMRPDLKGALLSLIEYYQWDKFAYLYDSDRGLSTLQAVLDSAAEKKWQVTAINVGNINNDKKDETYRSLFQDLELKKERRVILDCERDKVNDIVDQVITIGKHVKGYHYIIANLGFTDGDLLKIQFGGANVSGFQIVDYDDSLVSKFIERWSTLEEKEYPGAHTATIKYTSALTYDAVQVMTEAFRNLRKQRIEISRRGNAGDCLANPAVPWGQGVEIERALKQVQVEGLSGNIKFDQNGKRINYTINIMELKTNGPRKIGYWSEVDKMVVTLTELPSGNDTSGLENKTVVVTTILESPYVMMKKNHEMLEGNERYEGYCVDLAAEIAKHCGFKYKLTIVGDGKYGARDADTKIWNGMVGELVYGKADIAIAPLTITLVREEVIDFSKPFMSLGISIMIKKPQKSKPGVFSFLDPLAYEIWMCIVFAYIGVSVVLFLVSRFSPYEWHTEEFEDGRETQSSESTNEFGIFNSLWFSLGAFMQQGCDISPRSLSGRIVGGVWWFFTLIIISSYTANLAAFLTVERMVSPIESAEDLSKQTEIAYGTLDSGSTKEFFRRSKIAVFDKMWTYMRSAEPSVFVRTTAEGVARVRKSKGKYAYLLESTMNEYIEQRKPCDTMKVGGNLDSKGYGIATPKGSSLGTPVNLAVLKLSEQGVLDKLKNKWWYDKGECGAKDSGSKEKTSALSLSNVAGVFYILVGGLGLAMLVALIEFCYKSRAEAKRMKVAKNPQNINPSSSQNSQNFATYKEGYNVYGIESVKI

B1: FN1040 (ssRNA)
RNA: GGGAGAAUUCAACUGCCAUCUAGGCACGCUACUGUGAGUGUUGUGAUGGCGGCUGAACGAUCGAAACGGAACUGUAGUACUACAAGCUUCUGGACUCGGU
modifications: 2'-F at all A, C and U; G is 2'-OH
[1]
  Ki: 2300 nM
[2]
  Kd: 20 nM
